# Measured values as given in the supplement of paper PMC9112550, “Optimization of the antimicrobial peptide Bac7 by deep mutational scanning” (BMC Biology, 2022).
# System: Escherichia coli TOP10
# Test: shrunken log2 fold change of peptide-encoding DNA abundance (4.5 h post-induction vs induction); higher = less antimicrobial activity (less host growth inhibition)
# Settings: time post-induction: 4.5 h; library: site-saturation at positions 5, 18, 19, 20
# 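Also: peptides expressed intracellularly from a pBAD plasmid library in pooled LB shake-flask culture, induced with 0.3% L-arabinose, DNA abundance read by NGS, three biological replicates, DESeq2 with apeglm shrinkage.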
row,Sequence,shrunken log2 fold change
1,RRIRDRPPRLPRPRPRPLAFPRP,0.334
2,RRIRVRPPRLPRPRPRPHFQPRP,-0.154
3,RRIRIRPPRLPRPRPRPGFDPRP,0.027
4,RRIRKRPPRLPRPRPRPQKMPRP,0.0795
5,RRIRTRPPRLPRPRPRPQPTPRP,0.197
6,RRIRHRPPRLPRPRPRPFDMPRP,-0.00783
7,RRIRSRPPRLPRPRPRPFDSPRP,-0.0702
8,RRIRSRPPRLPRPRPRPGRWPRP,0.657
9,RRIRERPPRLPRPRPRPERAPRP,-0.024
10,RRIRKRPPRLPRPRPRPYAVPRP,0.916
11,RRIRARPPRLPRPRPRPYPTPRP,-0.0691
12,RRIRLRPPRLPRPRPRPFPMPRP,-0.312
13,RRIRKRPPRLPRPRPRPTAIPRP,0.444
14,RRIRDRPPRLPRPRPRPKGNPRP,0.0802
15,RRIRKRPPRLPRPRPRPDCKPRP,-0.0333
16,RRIRMRPPRLPRPRPRPYHIPRP,-0.69
17,RRIRSRPPRLPRPRPRPWYHPRP,-0.45
18,RRIRMRPPRLPRPRPRPRDHPRP,0.324
19,RRIRWRPPRLPRPRPRPCGLPRP,0.123
20,RRIRWRPPRLPRPRPRPDRPPRP,-0.0134
21,RRIRGRPPRLPRPRPRPHNMPRP,-0.285
22,RRIRVRPPRLPRPRPRPLLGPRP,-0.131
23,RRIRSRPPRLPRPRPRPQHQPRP,-0.0399
24,RRIRVRPPRLPRPRPRPEYKPRP,-0.501
25,RRIRMRPPRLPRPRPRPIDHPRP,0.0383

row,Sequence,shrunken log2 fold change
1,RRIRARPPRLPRPRPRPCLSPRP,0.233
2,RRIRVRPPRLPRPRPRPQFDPRP,-0.00843
3,RRIRHRPPRLPRPRPRPDLDPRP,-0.0331
4,RRIRARPPRLPRPRPRPVIEPRP,0.362
5,RRIRDRPPRLPRPRPRPMGPPRP,-0.00107
6,RRIRQRPPRLPRPRPRPVEPPRP,0.117
7,RRIRYRPPRLPRPRPRPLIWPRP,-0.256
8,RRIRQRPPRLPRPRPRPERMPRP,0.0275
9,RRIRCRPPRLPRPRPRPQTLPRP,-0.148
10,RRIRNRPPRLPRPRPRPEFVPRP,0.189
11,RRIRTRPPRLPRPRPRPEVRPRP,0.0828
12,RRIRERPPRLPRPRPRPQAIPRP,-0.0062
13,RRIRTRPPRLPRPRPRPTESPRP,-0.0539
14,RRIRMRPPRLPRPRPRPLAVPRP,0.328
15,RRIRWRPPRLPRPRPRPELDPRP,1.82
16,RRIRLRPPRLPRPRPRPAVNPRP,-0.0174
17,RRIRARPPRLPRPRPRPHQKPRP,-0.0267
18,RRIRGRPPRLPRPRPRPRFKPRP,0.449
19,RRIRSRPPRLPRPRPRPDILPRP,0.115
20,RRIRVRPPRLPRPRPRPRHLPRP,-0.222
21,RRIRTRPPRLPRPRPRPWHRPRP,-0.126
22,RRIRPRPPRLPRPRPRPRNRPRP,0.516
23,RRIRRRPPRLPRPRPRPGGPPRP,0.321
24,RRIRYRPPRLPRPRPRPTERPRP,-0.532
25,RRIRHRPPRLPRPRPRPCSMPRP,-0.0569

row,Sequence,shrunken log2 fold change
1,RRIRKRPPRLPRPRPRPSAQPRP,1.84
2,RRIRDRPPRLPRPRPRPVGRPRP,0.301
3,RRIRSRPPRLPRPRPRPLHDPRP,-0.0221
4,RRIRGRPPRLPRPRPRPITTPRP,0.407
5,RRIRRRPPRLPRPRPRPCREPRP,0.0134
6,RRIRKRPPRLPRPRPRPAMMPRP,1.24
7,RRIRDRPPRLPRPRPRPVIQPRP,0.474
8,RRIRMRPPRLPRPRPRPQLQPRP,0.165
9,RRIRWRPPRLPRPRPRPMRYPRP,-0.0679
10,RRIRNRPPRLPRPRPRPHHQPRP,-1.12
11,RRIRPRPPRLPRPRPRPKQKPRP,0.123
12,RRIRYRPPRLPRPRPRPKRCPRP,0.0441
13,RRIRVRPPRLPRPRPRPFYHPRP,-0.502
14,RRIRCRPPRLPRPRPRPRGDPRP,0.867
15,RRIRGRPPRLPRPRPRPPHLPRP,0.558
16,RRIRCRPPRLPRPRPRPQEAPRP,0.0141
17,RRIRIRPPRLPRPRPRPGKSPRP,-0.0715
18,RRIRKRPPRLPRPRPRPLITPRP,0.0992
19,RRIRKRPPRLPRPRPRPYYFPRP,-0.234
20,RRIRHRPPRLPRPRPRPCLHPRP,-0.0114
21,RRIRNRPPRLPRPRPRPVQTPRP,0.12
22,RRIRKRPPRLPRPRPRPDPNPRP,0.0802
23,RRIRFRPPRLPRPRPRPKYGPRP,-0.234
24,RRIRSRPPRLPRPRPRPQRIPRP,-0.322
25,RRIRARPPRLPRPRPRPNQHPRP,-0.124
